Values quoted from earlier work, collected in patent publication US5747454A, “Chromogranin peptides” (Albert Einstein College of Medicine of Yeshiva University, priority 1995, dated 1998).

Test system: primary cultures of parathyroid cells

B1: Chromogranin A: large, acidic protein found in the secretory granules of endocrine and neuroendocrine tissues including the parathyroid (protein, UniProt P10645 19-457, looked up)
Chromogranin-A: LPVNSPMNKGDTEVMKCIVEVISDTLSKPSPMPVSQECFETLRGDERILSILRHQNLLKELQDLALQGAKERAHQQKKHSGFEDELSEVLENQSSQAELKEAVEEPSSKDVMEKREDSKEAEKSGEATDGARPQALPEPMQESKAEGNNQAPGEEEEEEEEATNTHPPASLPSQKYPGPQAEGDSEGLSQGLVDREKGLSAEPGWQAKREEEEEEEEEAEAGEEAVPEEEGPTVVLNPHPSLGYKEIRKGESRSEALAVDGAGKPGAEEAQDPEGKGEQEHSQQKEEEEEMAVVPQGLFRGGKSGELEQEEERLSKEWEDSKRWSKMDQLAKELTAEKRLEGQEEEEDNRDSSMKLSFRARAYGFRGPGPQLRRGWRPSSREDSLEAGLPLQVRGYPEEKKEEEGSANRRPEDQELESLSAIEAELEKVAHQLQALRRG
In the case of B1, the “inhibition of parathyroid hormone secretion” value is given as “inhibit parathyroid hormone secretion”.
